# Measurements as given in the supplement of paper PMC10567573.
# ± gives the standard deviation.
# Assay: protein stability index of a GFP-peptide fusion (GPS, HEK-293T) (PSI 1-6); higher = more stable
# [1] = treatment: DMSO, c terminus: a fixed tail appended
# [2] = treatment: MLN4924 1 uM, 8 h, c terminus: a fixed tail appended
# 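Further: 24-mer peptide tiles fused after GFP, lentivirally expressed, FACS-sorted into six equal bins by GFP/DsRed ratio, decoded by Illumina sequencing, PSI is the read-weighted mean bin number.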
Sequence,protein stability index [1],protein stability index [2],"protein stability index (treatment: DMSO, c terminus: native)","protein stability index (treatment: MLN4924 1 uM, 8 h, c terminus: native)"
LKAKKVWYDMFRDAAAILLDEQNK [ZMAT5],2.38 ± 0.1,2.26 ± 0.17,–,–
LKFLEENKIKVMHKQLLLFHNAVS [ARFIP2],2.41 ± 0.44,2.17 ± 0.26,–,–
LKLYYRRLFPYSQYYRWLNYGGVI [PRIM1],2.07 ± 0.7,2.6 ± 1.2,–,–
LKSKAEAEALYQTKFQELQLAAGR [KRT71],3.73 ± 0.22,3.85 ± 0.41,–,–
LKYENELALRQGVEADINGLRRVL [KRT15],3.35 ± 0.23,3.6 ± 0.18,–,–
LLDCFGIPVLMALSWFILHARYRV [SLC35F2],3.07 ± 0.33,3.64 ± 0.27,–,–
LLESSSSYKNLTLKFHKLVNVTIH [MCOLN1],2.58 ± 0.41,2.33 ± 0.55,–,–
LLKALVSELSEHLRDPLTSLSHTE [FCHSD1],2.44 ± 0.42,2.2 ± 0.17,–,–
LLLEPGSLYILRGSARYDFSHEIL [ALKBH7],2.58 ± 1.2,2.58 ± 1.3,–,–
LLQHLLEACGRCEEVPEAYVDIHT [PYCR3],2.1 ± 0.48,2.42 ± 0.66,–,–
LLREEEYVAPPRGPLPTLQVVPL [TRAF3IP2],–,–,2.35 ± 0.3,2.05 ± 0.33
LLSLDPVQDKTPLYSQLLQAYKWS [MED27],2.04 ± 0.22,1.97 ± 0.2,–,–
LLYWGIAEDHLDGCCKRRYLQKIE [KCNG1],1.95 ± 0.33,2.3 ± 0.12,–,–
LMAEGLLPAVKVFLDWLRTNPDLI [SMG5],2.57 ± 0.38,2.6 ± 0.56,–,–
LMAPTCVFLASKVEEFGVVSNTRL [CCNC],2.2 ± 0.34,2.21 ± 0.14,–,–
LMILRRVVNESTVCLMGHERRQTL [TENT5C],2.33 ± 0.18,2.34 ± 0.32,–,–
LNELPVPMVARYIRINPQSWFDNG [CPXM2],2.21 ± 0.42,2.43 ± 0.28,–,–
LNMAKKSVDIVSSHWDLNHTHPSA [PLD5],3.1 ± 0.3,3.2 ± 0.28,–,–
LPGNEEFQVVKDAVLDCLLDFLPK [TENT5D],2.32 ± 0.39,2.4 ± 0.21,–,–
LPLERDAESFLLKSPIAPCSLDKR [CDC25B],4.35 ± 0.18,4.35 ± 0.15,–,–
LPPYPPYFEGAPFPHPLWLRDTYK [PWWP2B],2.54 ± 0.39,2.5 ± 0.12,–,–
LQPLSKPLSSQPQAIVTEDKTDIS [MLH1],5.31 ± 0.19,5.19 ± 0.14,–,–

Sequence,protein stability index [1],protein stability index [2],"protein stability index (treatment: DMSO, c terminus: native)","protein stability index (treatment: MLN4924 1 uM, 8 h, c terminus: native)"
LQTPLDIRLKESINCQLSDPSSTK [TRIM14],4.62 ± 0.29,4.55 ± 0.34,–,–
LRKRKEIREDRDRARLDSMVLLIM [DLC1],2.08 ± 0.51,2.17 ± 0.34,–,–
LRLRKERVSDVQKVLQGGEQEIQF [PKD2L1],3.74 ± 0.17,3.77 ± 0.34,–,–
LRNNQISHKGAEELALALKGNTTL [LRRC45],3.92 ± 0.14,4.05 ± 0.21,–,–
LRSRYSVASFKFDAGEVSYLPRDF [MYORG],2.37 ± 0.12,2.42 ± 0.37,–,–
LSEPDPSHTLEERVVHWYFKLLDK [SMOC2],2.61 ± 0.46,2.84 ± 0.29,–,–
LSFQEELLYWGIAEDHLDGCCKRR [KCNG1],2.35 ± 0.36,2.61 ± 0.26,–,–
LSGATKKGTEKQTTSETQKSVQCG [NETO1],5.17 ± 0.27,5.22 ± 0.24,–,–
LSLLELLELLLDASALTLVLGGRR [SCNN1D],2.99 ± 0.95,2.32 ± 0.56,–,–
LSLNMDNLQDTLEAASFLQILPVL [KLHL13],2.66 ± 0.52,2.72 ± 0.45,–,–
LSNKNGKNVELKFVDSIRRQFEFS [TENT5C],2.56 ± 0.24,2.48 ± 0.42,–,–
LTGLNYEAPKYHIPYWVAYYLALL [NSDHL],2.71 ± 0.59,2.87 ± 0.48,–,–
LTKYPTDRDSIWKCLKFLGSRHPT [INTS4],2.38 ± 0.19,2.39 ± 0.095,–,–
LTLAQGAGEEDPSGMVTIITGLPL [SMG5],2.98 ± 0.43,2.76 ± 0.44,–,–
LTQPLQGGTPHCEPCQLPSESPGS [DNAAF3],5.17 ± 0.2,5.12 ± 0.12,–,–
LTRHTKKTHSQELMKESLQTGDLL [PLAGL1],4.35 ± 0.28,4.59 ± 0.12,–,–
LTSLKDLYKSLKTLSAELVPWLNL [CEP70],3.15 ± 0.57,3.07 ± 0.42,–,–
LVDEEEKVLIQKNLGPKSKVLILR [ADD1],3.16 ± 0.5,2.84 ± 0.25,–,–
LVGKPKIFIIQACRGNQHDVPVIP [CASP6],2.56 ± 0.66,2.1 ± 0.2,–,–
LVHTQEPGEWLELLLEPGSLYILR [ALKBH7],2.38 ± 1,2.23 ± 0.28,–,–
LVRTLYKVQNECPGITRVYSIGRS [CPN1],2.27 ± 0.55,2.11 ± 0.14,–,–
LVSPERAQPPDYTFPSGSGAHFPQ [PI4K2A],3.96 ± 0.3,4.13 ± 0.25,–,–
